Sequences and labels used below:
B1: native Ad5 fiber knob (ligand)
chain: GAITVGNKNNDKLTLWTTPAPSPNCRLNAEKDAKLTLVLTKCGSQILATVSVLAVKGSLAPISGTVQSAHLIIRFDENGVLLNNSFLDPEYWNFRNGDLTEGTAYTNAVGFMPNLSAYPKSHGKTAKSNIVSQVYLNGDKTKPVTLTITLNGTQETGDTTPSAYSMSFSWDWSGHNYINEIFATSSYTFSYIAQE
B2: Ad5-9 mutant Ad5 fiber knob EGTAY(487-491)GGGGG (ligand)
chain: B1 chain with E101G, T103G, A104G, Y105G
B3: Ad5-5 mutant Ad5 fiber knob K(420)A (ligand)
chain: B1 chain with K34A
B4: Ad5-4 mutant Ad5 fiber knob K(417)G (ligand)
chain: B1 chain with K31G
B5: Ad5-3 mutant Ad5 fiber knob RLNAEK(412-417)SLNGGG (ligand)
chain: B1 chain with R26S, A29G, E30G, K31G
B6: Ad5-8 mutant Ad5 fiber knob Y(477)A (ligand)
chain: B1 chain with Y91A
B7: Ad5-1 mutant Ad5 fiber knob S408E (ligand)
chain: B1 chain with S22E
B8: Ad5-2 mutant Ad5 fiber knob P409A (ligand)
chain: B1 chain with P23A

Numbering of substitutions follows the chain as printed. In names and notes the source's numbering stands.

The first experiment concerns the target coxsackievirus and adenovirus receptor (CAR) (UniProt P78310). Put plainly: cell-based or functional assay.
As for “Ad5-7 mutant Ad5 fiber knob, deletion DPEY(474-477) (from UniProt P11818 387-581) (ligand)”, the Competition (from IC50 of blocking Ad5-lacZ transduction of A549 cells, β-galactosidase activity) was below 0.1%. “Ad5-10 mutant Ad5 fiber knob, deletion TAYT(489-492) (from UniProt P11818 387-581) (ligand)” displayed a Competition (from IC50 of blocking Ad5-lacZ transduction of A549 cells, β-galactosidase activity) below 0.1%.

As for “Ad5-6 mutant Ad5 fiber knob, deletion DPE(474-476) (from UniProt P11818 387-581) (ligand)”, the Competition (from IC50 of blocking Ad5-lacZ transduction of A549 cells, β-galactosidase activity) was below 20%. The molecule “F3K (native) (from UniProt P04501 119-319) (ligand)” yielded a Competition (from IC50 of blocking Ad5-lacZ transduction of A549 cells, β-galactosidase activity) below 0.1%.

The next experiment concerns the target T1, coxsackievirus and adenovirus receptor (CAR) (UniProt P78310 20-365).
T1 sequence: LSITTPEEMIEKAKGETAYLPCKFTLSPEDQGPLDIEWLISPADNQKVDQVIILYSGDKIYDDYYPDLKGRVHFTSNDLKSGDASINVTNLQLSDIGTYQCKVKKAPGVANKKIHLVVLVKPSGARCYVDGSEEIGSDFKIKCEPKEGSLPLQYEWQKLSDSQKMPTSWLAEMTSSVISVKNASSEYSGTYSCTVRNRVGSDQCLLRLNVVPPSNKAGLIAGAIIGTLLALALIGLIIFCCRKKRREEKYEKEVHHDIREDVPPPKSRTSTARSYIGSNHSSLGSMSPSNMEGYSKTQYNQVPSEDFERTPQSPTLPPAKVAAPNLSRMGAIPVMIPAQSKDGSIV
The experiment can be described thus: cell-based or functional assay.
In the case of B1, the “Competition (from IC50 of blocking Ad5-lacZ transduction of A549 cells, β-galactosidase activity)” value (from here on “Competition”) was determined as 100%.

With B2, the “Competition” value is below 0.1%. B3: the “Competition” value was below 0.1%. Consider B4, for which the “Competition” value is below 0.1%. For B5, the “Competition” value is below 0.1%. In the case of B6, the “Competition” value is below 0.1%. With B7, the “Competition” value was below 0.1%. The same measure, in the same setting: the figure for B8 is below 1%.
